Test results reported in patent publication US20200384081A1 (Janssen / Centocor, published 2020).
Changes are numbered by the printed parent chain. Values belong to the molecule of their own block, whether it stands above or below them.

Tests used:
IL-12 (mouse) (mouse) = IL-12 (mouse) (mouse) (UniProt P43432); assay: cell-based or functional assay; details: scale: fold more effective than the anti-p35 mAb
[1] = molecular target: T1, human p40 single mutant L40T (human, UniProt P29460 23-328); assay: capture assay, relative binding affinity of the mAb to p40 muteins (FIG. 4)
T1 construct: HEK293E supernatant
T1 sequence: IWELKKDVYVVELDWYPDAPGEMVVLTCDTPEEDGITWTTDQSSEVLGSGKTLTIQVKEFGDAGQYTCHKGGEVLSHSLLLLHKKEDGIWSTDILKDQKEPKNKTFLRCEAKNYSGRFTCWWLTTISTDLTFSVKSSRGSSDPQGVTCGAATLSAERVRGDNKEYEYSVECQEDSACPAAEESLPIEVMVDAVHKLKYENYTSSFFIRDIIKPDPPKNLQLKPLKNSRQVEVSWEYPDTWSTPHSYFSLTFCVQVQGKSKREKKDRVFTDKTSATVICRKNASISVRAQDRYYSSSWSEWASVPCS
Protocol: (§1) In brief, MSD high bind plates (Meso Scale Discovery, MD) were coated with 5 μl of a capture monoclonal antibody (5 μg/ml) at room temperature for 1 hour. […] One-hundred and fifty (150) μl of 5% MSD Blocker A buffer was added to each well and incubated for 1 hr at room temperature. Plates were washed three times with 0.1 M HEPES buffer (pH 7.4). These protein-charged ELISA plates were incubated with 25 μl of different transiently expressed p40 mutant supernatants (1:10 dilution with 0.1 M HEPES buffer, pH 7.4) for 1 hr at room temperature. The plates were washed three times with 0.1 M HEPES buffer (pH 7.4). Twenty-five (25) μ1 of different concentrations of MSD Sulfo-TAG labeled p40 mAb, ranging from 0 to 20 μg/ml, were dispensed to micro-wells. After incubation for 2 hrs shaking at room temperature, plates were washed 3 times with 0.1 M HEPES buffer (pH 7.4). One hundred and fifty (150) μ1 of diluted MSD Read Buffer T was dispensed into each well and the plates were analyzed with a SECTOR imager (MSD).

[2] = molecular target: T2, human p40 single mutant E45A (human, UniProt P29460 23-328); assay: as above
T2 construct: HEK293E supernatant
T2 sequence: T1 sequence with T40L, E45A
Protocol: as §1

[3] = molecular target: T3, human p40 single mutant M23T (human, UniProt P29460 23-328); assay: as above
T3 construct: HEK293E supernatant
T3 sequence: T1 sequence with M23T, T40L
Protocol: as §1

[4] = molecular target: T4, human p40 single mutant S43R (human, UniProt P29460 23-328); assay: as above
T4 construct: HEK293E supernatant
T4 sequence: T1 sequence with T40L, S43R
Protocol: as §1

IL-12 (mouse) (mouse), sequence (P43432 23-335 limits assumed, chain 1 of 2): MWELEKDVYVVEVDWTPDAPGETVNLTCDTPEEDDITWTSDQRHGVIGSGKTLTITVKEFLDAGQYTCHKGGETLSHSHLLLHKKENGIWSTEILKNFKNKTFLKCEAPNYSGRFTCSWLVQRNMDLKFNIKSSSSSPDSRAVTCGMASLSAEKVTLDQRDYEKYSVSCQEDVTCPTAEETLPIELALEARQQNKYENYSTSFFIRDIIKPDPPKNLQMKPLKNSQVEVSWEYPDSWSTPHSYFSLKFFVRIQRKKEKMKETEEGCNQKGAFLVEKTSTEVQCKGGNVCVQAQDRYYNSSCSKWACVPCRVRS
IL-12 (mouse) (mouse), sequence (P43431 23-215 limits assumed, chain 2 of 2, further chain): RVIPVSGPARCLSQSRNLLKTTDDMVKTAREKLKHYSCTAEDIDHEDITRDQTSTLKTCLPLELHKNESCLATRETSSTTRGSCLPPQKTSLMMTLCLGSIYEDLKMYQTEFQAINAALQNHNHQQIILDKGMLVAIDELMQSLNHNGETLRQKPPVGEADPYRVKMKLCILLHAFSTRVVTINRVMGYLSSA

neutralizing IL-12 (in vitro neutralization studies) (IL-12 (mouse) (mouse)): 5
Molecule: C17.8 (rat anti-mouse IL-12/IL-23p40, IgG2a) (antibody)

reduction of binding [1]: ~40%
reduction of binding [2]: ~70%
reduction of binding [3]: ~40%
reduction of binding [4]: ~40%
B1: IL-12/IL-23p40 mAb (antibody, V domains shown)
VH: EVQLVQSGAEVKKPGESLKISCKGSGYSFTTYWLGWVRQMPGKGLDWIGIMSPVDSDIRYSPSFQGQVTMSVDKSITTAYLQWNSLKASDTAMYYCARRRPGQGYFDFWGQGTLVTVSS
VL: DIQMTQSPSSLSASVGDRVTITCRASQGISSWLAWYQQKPEKAPKSLIYAASSLQSGVPSRFSGSGSGTDFTLTISSLQPEDFATYYCQQYNIYPYTFGQGTKLEIKR
notes: Fully human monoclonal IgG from a mammalian cell line, purified on protein A; also called IL-12/23p40 mAb; IL-12 p40 antibody
